From US20020192214A1

Target: human eosinophil eotaxin receptor CC CKR3, stably expressed in AML14.3D10 cells (human) (UniProt P51677)
Assay: cell-based or functional assay

Sequence of human eosinophil eotaxin receptor CC CKR3, stably expressed in AML14.3D10 cells (human) (P51677 whole entry): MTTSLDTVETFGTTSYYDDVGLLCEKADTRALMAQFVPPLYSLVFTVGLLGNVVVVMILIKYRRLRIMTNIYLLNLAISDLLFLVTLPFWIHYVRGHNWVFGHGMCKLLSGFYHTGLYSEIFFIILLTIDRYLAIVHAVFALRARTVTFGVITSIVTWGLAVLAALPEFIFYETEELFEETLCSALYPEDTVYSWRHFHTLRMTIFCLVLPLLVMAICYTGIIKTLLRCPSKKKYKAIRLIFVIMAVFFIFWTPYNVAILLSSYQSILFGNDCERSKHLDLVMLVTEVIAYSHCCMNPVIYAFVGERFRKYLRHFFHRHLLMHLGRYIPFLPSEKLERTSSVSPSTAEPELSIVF

Ca^2+-flux (intracellular Ca^2+ levels): > 1 µM
Substance: IL-8 (from UniProt P10145 28-99) (ligand)
